Results taken from publication PMC5371648.

Target: modern EF-Tu (elongation factor Tu) from E. coli (E. coli) (UniProt P0CE47)
Assay: ITC; Microcal ITC200; 0.6-1 mM NusA in the syringe titrated (2.5 uL injections, 120-s intervals) into 10 uM EF-Tu in the cell; Buffer C (20 mM Tris-HCl pH 7.5, 50 mM MgCl2, 100 mM KCl)

Kd: 14.6 µM
Substance: wild-type NusA protein from E. coli (from UniProt P0AFF6 1-495) (natural protein)
